The target of this experiment is T1, H4R-Nluc (human, UniProt Q9H3N8-1 1-390).
T1 construct: histamine H4 receptor (H4R), human; Nluc fused in frame to the intracellular C-terminal tail; also called H4R-Nluc/pcDEF3; human H4R-Nluc fusion; source: HEK293T, transiently transfected, in living cells; not shown: NanoLuc (Nluc), C-terminal, kept
The experiment can be described thus: FRET or BRET; saturation BRET in living HEK293T cells; constant H4R-Nluc donor (12.5 ng) with 0-500 ng mVenus-tagged TSPAN4 acceptor plasmid; HBSS, 37 °C; vehicle or 10 µM histamine; one site-specific binding fit. The following applies: partners not purified.

T1 sequence (Q9H3N8 whole entry, the tested form may be a part): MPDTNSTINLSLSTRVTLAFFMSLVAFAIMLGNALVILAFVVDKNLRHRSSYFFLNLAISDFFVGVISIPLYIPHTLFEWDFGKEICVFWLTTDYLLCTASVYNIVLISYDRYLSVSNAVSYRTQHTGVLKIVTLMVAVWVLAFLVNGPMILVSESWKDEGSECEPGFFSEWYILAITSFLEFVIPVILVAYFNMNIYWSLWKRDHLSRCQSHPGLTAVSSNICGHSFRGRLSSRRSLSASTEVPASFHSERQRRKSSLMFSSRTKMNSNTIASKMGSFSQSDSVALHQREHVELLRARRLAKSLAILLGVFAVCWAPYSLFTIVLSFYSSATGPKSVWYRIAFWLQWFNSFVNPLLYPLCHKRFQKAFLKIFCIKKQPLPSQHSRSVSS

B1: TSPAN4-mVenus (natural protein, human, UniProt O14817 1-238, looked up)
chain: MARACLQAVKYLMFAFNLLFWLGGCGVLGVGIWLAATQGSFATLSSSFPSLSAANLLIITGAFVMAIGFVGCLGAIKENKCLLLTFFLLLLLVFLLEATIAILFFAYTDKIDRYAQQDLKKGLHLYGTQGNVGLTNAWSIIQTDFRCCGVSNYTDWFEVYNATRVPDSCCLEFSESCGLHAPGTWWKAPCYETVKVWLQENLLAVGIFGLCTALVQILGLTFAMTMYCQVVKADTYCA
notes: tetraspanin 4 (TSPAN4), human; stop codon replaced by SpeI-NotI sites coding for a TSAAA linker, mVenus at the intracellular C-terminus; also called TSPAN4-mVenus/pcDEF3; source: HEK293T, transiently transfected, in living cells; not shown: mVenus (with TSAAA linker), C-terminal, kept
B1: the “BRET50 (vehicle)” value was 0.45 mVenus/Nluc ratio and the “BRET50 (with 10 µM histamine)” value turned out to be 0.68 mVenus/Nluc ratio.

B2: mVenus-TSPAN4 (natural protein, human, UniProt O14817 2-238, looked up)
chain: ARACLQAVKYLMFAFNLLFWLGGCGVLGVGIWLAATQGSFATLSSSFPSLSAANLLIITGAFVMAIGFVGCLGAIKENKCLLLTFFLLLLLVFLLEATIAILFFAYTDKIDRYAQQDLKKGLHLYGTQGNVGLTNAWSIIQTDFRCCGVSNYTDWFEVYNATRVPDSCCLEFSESCGLHAPGTWWKAPCYETVKVWLQENLLAVGIFGLCTALVQILGLTFAMTMYCQVVKADTYCA
notes: tetraspanin 4 (TSPAN4), human; start codon replaced by SpeI-NotI sites coding for a TSAAA linker, mVenus at the intracellular N-terminus; also called mVenus-TSPAN4/pcDNA3.1; source: HEK293T, transiently transfected, in living cells (BRET) and in lysate (co-IP); not shown: mVenus (with TSAAA linker), N-terminal, kept
In the case of B2, the “BRET50 (vehicle)” value was 0.79 mVenus/Nluc ratio and the “BRET50 (with 10 µM histamine)” value is 0.92 mVenus/Nluc ratio.

The values are drawn from publication PMC8394291, “Identification of TSPAN4 as Novel Histamine H4 Receptor Interactor” (Biomolecules, 2021).
